Positions count from the first letter of the chain named.
T1: human CD73 on the cell surface (MDA-MB-231 and SKOV3 tumor cells) (human, UniProt P21589 27-549)
T1 sequence (looked up): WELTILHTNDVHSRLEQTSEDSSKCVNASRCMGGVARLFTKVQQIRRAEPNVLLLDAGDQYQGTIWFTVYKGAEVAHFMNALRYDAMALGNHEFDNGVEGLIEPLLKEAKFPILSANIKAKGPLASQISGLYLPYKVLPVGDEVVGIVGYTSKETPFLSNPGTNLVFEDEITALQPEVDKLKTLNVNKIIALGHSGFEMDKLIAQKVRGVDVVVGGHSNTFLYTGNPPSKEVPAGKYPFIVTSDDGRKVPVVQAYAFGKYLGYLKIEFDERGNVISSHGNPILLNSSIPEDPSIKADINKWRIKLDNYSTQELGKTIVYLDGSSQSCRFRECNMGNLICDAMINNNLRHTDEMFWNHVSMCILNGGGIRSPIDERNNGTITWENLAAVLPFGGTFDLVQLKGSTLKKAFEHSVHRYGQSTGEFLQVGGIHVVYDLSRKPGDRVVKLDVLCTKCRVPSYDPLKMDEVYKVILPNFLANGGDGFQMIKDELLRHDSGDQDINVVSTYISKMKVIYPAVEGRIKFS

T2: C-terminal portion of the CD73 protein (Homo sapiens (Human), UniProt P21589 337-549)
T2 construct: also called CD73 C-terminal protein; C-terminus of the CD73 protein
T2 sequence: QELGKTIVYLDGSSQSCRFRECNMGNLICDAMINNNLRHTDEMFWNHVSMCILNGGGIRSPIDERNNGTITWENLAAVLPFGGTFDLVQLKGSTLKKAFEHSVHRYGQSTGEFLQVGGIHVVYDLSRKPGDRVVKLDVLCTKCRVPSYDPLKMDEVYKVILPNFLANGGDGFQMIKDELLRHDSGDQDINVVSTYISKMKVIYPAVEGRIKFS

T3: recombinant human CD73 protein (human, UniProt P21589 27-547)
T3 sequence (looked up): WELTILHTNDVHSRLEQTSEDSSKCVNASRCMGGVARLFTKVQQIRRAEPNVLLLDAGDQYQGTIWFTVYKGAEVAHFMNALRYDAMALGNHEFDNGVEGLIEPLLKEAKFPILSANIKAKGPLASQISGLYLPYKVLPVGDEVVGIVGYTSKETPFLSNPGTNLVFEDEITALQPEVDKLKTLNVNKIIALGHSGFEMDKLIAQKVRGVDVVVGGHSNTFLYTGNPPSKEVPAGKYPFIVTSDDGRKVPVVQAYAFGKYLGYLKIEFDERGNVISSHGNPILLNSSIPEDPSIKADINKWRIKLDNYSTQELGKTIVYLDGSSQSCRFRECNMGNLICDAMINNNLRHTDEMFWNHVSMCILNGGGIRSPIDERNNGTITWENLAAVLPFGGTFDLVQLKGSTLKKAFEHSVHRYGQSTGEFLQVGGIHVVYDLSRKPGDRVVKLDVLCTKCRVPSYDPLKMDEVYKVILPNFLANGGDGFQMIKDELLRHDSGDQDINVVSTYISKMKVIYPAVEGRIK

T4: cynomolgus monkey CD73 protein (cynomolgus monkey, UniProt A0A2K5V5U7 27-547)
T4 construct: construct not described
T4 sequence: T3 sequence (looked up) with M199T, T350A, V466I

B1: Hab1F2F9.15 (antibody, human IgG1, kappa, L234A L235A, V domains shown)
VH: QVQLVQSGAEVKKPGASVKVSCKASGYTFTSYWMHWVRQAPGQRLEWMGNINPSNGGTKYSQKFQGRVTITVDTSASTAYMELSSLRSEDTAVYYCARRDYGSPSYWGQGTTVTVSS
VL: DIQMTQSPSSLSASVGDRVTITCKASQDINSYLTWFQQKPGKAPKSLIYRTNILLDGVPSRFSGSGSGTDYTLTISSLQPEDFATYYCLQYHEFPVTFGGGTKLEIKR
notes: Humanized 1F2F9; also called Huab1F2F9.15; HuablF2F9.15
B2: Hab7C3C2.5 (antibody, human IgG1, kappa, L234A L235A, V domains shown)
VH: QVQLVQSGAEVKKPGASVKVSCKASGYTFTSYDINWVRQATGQGLEWIGWIYPRDGFTKYNEKFKGRVTLTVNTSISTAYMELSSLRSEDTAVYYCARKEGYRGDWYFDVWGQGTTVTVSS
VL: DIQMTQSPSSLSASVGDRVTITCRASGNVHNYLAWYQQKPGKAPKLLLYNAKTLASGVPSRFSGSGSGTDYTLTISSLQPEDFATYYCQHFWSTPWTFGGGTELEIKR
notes: Humanized 7C3C2; also called Hab7C3C.5

Columns and labels:
[1] = target: T1, human CD73 on the cell surface …; experiment: cell-based or functional assay
[2] = target: T2, C-terminal portion of the CD73 protein; experiment: ELISA, plate coated with CD73 C-terminal protein at 1 µg/mL
Description: In this example, the C-terminal portion (SEQ ID NO. 41) and the N-terminal portion (SEQ ID NO. 42) of the CD73 protein were separately constructed, and the epitopes recognized by the antibodies were detected by ELISA method. Elisa plates were respectively coated with the CD73 N-terminal and C-terminal proteins at a concentration of 1 μg/mL. The test antibodies were diluted in a gradient.

[3] = target: T3, recombinant human CD73 protein; experiment: cell-based or functional assay
[4] = target: T4, cynomolgus monkey CD73 protein; experiment: BLI (Fortebio), cynomolgus CD73 on HIS1K biosensors, antibody as analyte
Description: In this example, the cross-binding ability of the exemplary humanized anti-CD73 antibodies of the present application to cynomolgus monkey CD73 was assayed by a Fortebio experiment. The specific implementation steps included immobilizing the cynomolgus monkey CD73 protein onto HIS1K biosensors. […] The times for the ligand-analyte binding and dissociation were 120 s and 300 s, respectively. The data of the antigen-antibody affinity were calculated by regression according to the binding curves using an analysis software.

[5] = target: T1, human CD73 on the cell surface …; experiment: flow cytometry on SK-OV-3 cells
Description: In this example, the exemplary antibodies of the present application were compared with anti-CD73 antibodies described in other patent applications. Antibodies MEDI9447 and Hu101-28 (with CDR sequences from PCT patent applications WO 2016/075099 and WO 2018/137598, respectively) were cloned into eukaryotic expression vectors containing the hIgG1-kappa constant region. The binding ability of the humanized antibodies Hab7C3C2.5 and Hab1F2F9.15 to cell surface CD73 was assessed using tumor cell lines MDA-MB-231 and SKOV3 which endogenously express human CD73 on the cell surface. The cells were seeded in a 96-well plate at a density of 2×10⁶ cells/mL, with 100 μL per well. 4-fold gradient dilutions (0-100 nM) of the antibodies were added, and the mixture was incubated at 4° C. for 1 h. A goat anti-human secondary antibody was added, and the mixture was incubated at 4° C. in the dark for 50 min for labeling. The fluorescence intensity of the cells was then measured by a flow cytometer.

Binder	Cellular enzymatic activity inhibition IC50 [1]	binding result [2]	Protein enzymatic activity inhibition IC50 [3]	Kd [4]	koff [4]	kon [4]	EC50 [5]
B1	0.069 nM	no binding	0.011 nM	0.814 nM	0.0017 s⁻¹	2.09e+06 M⁻¹ s⁻¹	0.19 nM
B2	0.027 nM	no binding	0.018 nM	0.732 nM	0.00299 s⁻¹	4.08e+06 M⁻¹ s⁻¹	0.07 nM

— patent US20260152567A1 (CSPC MEGALITH BIOPHARMACEUTICAL, published 2026)
